From PMC4839565, “Evolution of Telomeres in Schizosaccharomyces pombe and Its Possible Relationship to the Diversification of Telomere Binding Proteins” come the findings set out here.

A word on the Kd: it is the constant that tells how readily two partners part at equilibrium.

For series [1], the target named is T1, Taz1p (6HN-Taz1) (Schizosaccharomyces pombe, UniProt P79005 2-663).
T1 sequence: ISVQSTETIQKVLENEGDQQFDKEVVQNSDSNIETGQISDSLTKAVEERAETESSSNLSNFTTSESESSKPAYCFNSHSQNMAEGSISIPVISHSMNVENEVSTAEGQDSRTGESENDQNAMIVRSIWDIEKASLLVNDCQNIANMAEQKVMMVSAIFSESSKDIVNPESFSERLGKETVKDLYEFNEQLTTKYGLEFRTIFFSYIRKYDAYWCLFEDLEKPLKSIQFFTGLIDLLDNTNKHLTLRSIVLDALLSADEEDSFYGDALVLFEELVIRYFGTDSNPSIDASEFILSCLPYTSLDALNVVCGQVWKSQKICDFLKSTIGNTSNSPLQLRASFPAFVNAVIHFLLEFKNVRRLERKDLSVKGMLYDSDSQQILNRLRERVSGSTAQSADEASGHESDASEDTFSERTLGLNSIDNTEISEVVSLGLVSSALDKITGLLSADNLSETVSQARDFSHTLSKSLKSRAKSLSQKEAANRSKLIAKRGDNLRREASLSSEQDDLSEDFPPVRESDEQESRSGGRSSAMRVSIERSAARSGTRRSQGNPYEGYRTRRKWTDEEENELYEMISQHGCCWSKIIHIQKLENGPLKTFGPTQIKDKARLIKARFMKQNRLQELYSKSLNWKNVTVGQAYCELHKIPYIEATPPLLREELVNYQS
Nature of the series: fluorescence anisotropy; HNED, 0.1 mM DTT, 25 C; HNE: 20 mM HEPES-NaOH pH 7.5, 1 mM EDTA, 100 mM NaCl (Teb1); HNED = HNE + 0.1 mM DTT (Taz1). FA: 2 nM DNA, 25 C (Teb1/SpTEL 37 C). EMSA: 15 nM DNA, 0.05-4.5 uM. To be noted: protein: recombinant; tags: N-terminal 6HN; chain copies: 2; EMSA: 5'-32P on strand A; blunt.

For series [2], the target named is T2, Teb1p (6HN-Teb1) (Schizosaccharomyces pombe, UniProt Q10274 2-390).
T2 sequence: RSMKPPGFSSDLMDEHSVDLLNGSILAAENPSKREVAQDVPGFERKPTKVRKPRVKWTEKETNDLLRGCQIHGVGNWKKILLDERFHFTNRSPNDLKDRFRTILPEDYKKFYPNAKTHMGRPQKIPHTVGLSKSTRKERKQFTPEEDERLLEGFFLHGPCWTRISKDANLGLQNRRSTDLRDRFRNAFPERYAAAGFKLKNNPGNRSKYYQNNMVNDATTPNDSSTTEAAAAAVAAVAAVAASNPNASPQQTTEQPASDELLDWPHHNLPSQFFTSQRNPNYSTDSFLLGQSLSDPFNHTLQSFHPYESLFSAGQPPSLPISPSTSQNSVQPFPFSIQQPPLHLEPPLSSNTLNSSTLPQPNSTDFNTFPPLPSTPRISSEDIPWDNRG
In words: fluorescence anisotropy; HNE, no DTT, 25 C; HNE: 20 mM HEPES-NaOH pH 7.5, 1 mM EDTA, 100 mM NaCl (Teb1); HNED = HNE + 0.1 mM DTT (Taz1). FA: 2 nM DNA, 25 C (Teb1/SpTEL 37 C). EMSA: 15 nM DNA, 0.05-4.5 uM. To be noted: protein: recombinant; tags: N-terminal 6HN; C-terminal GST removed with PreScission protease (residual site residues); EMSA: 5'-32P on strand A; blunt.

The target in series [3] is T2, Teb1p (6HN-Teb1). In words: EMSA; no DTT; almost complete restoration; HNE: 20 mM HEPES-NaOH pH 7.5, 1 mM EDTA, 100 mM NaCl (Teb1); HNED = HNE + 0.1 mM DTT (Taz1). FA: 2 nM DNA, 25 C (Teb1/SpTEL 37 C). EMSA: 15 nM DNA, 0.05-4.5 uM. To be noted: protein: recombinant; tags: N-terminal 6HN; C-terminal GST removed with PreScission protease (residual site residues); label: 5'-32P on strand A; blunt. (In general: Mobility shift assays separate free from complexed probe on a gel.)

Series [4] concerns the target T2, Teb1p (6HN-Teb1). Nature of the series: fluorescence anisotropy; HNE, no DTT, 37 C; HNE: 20 mM HEPES-NaOH pH 7.5, 1 mM EDTA, 100 mM NaCl (Teb1); HNED = HNE + 0.1 mM DTT (Taz1). FA: 2 nM DNA, 25 C (Teb1/SpTEL 37 C). EMSA: 15 nM DNA, 0.05-4.5 uM. To be noted: protein: recombinant; tags: N-terminal 6HN; C-terminal GST removed with PreScission protease (residual site residues); EMSA: 5'-32P on strand A; blunt. In general terms: Polarisation of emitted light reports the rotation of a fluorescent probe.

For series [5], the target named is T2, Teb1p (6HN-Teb1). In words: EMSA; no DTT; HNE: 20 mM HEPES-NaOH pH 7.5, 1 mM EDTA, 100 mM NaCl (Teb1); HNED = HNE + 0.1 mM DTT (Taz1). FA: 2 nM DNA, 25 C (Teb1/SpTEL 37 C). EMSA: 15 nM DNA, 0.05-4.5 uM. To be noted: protein: recombinant; tags: N-terminal 6HN; C-terminal GST removed with PreScission protease (residual site residues); label: 5'-32P on strand A; blunt.

B1: HsTEL (dsDNA)
DNA 1: GTTAGGGTTAGGGTTAG
DNA 2: CTAACCCTAACCCTAAC
In the case of B1, the results for the Kd in series [1] and in series [2] were 54 ± 5 nM and 31 ± 5 nM, respectively.

B2: HisBoxFlankPart (dsDNA)
DNA 1: AGGGTTAGGGTTACAGC
DNA 2: GCTGTAACCCTAACCCT
Consider B2, for which the binding result in series [3] is recorded as “binds”.

B3: SpTEL (dsDNA)
DNA 1: TTACAGGGGGTTACAGGG
DNA 2: CCCTGTAACCCCCTGTAA
With B3, the figures for the Kd in series [1] and in series [4] were 115 ± 9 nM and 380 ± 30 nM, respectively.

B4: HisBox (dsDNA)
DNA 1: AGGGTTAGGGTTGTGAT
DNA 2: ATCACAACCCTAACCCT
As for B4, the Kd was 380 ± 50 nM in series [1] and 53 ± 6 nM in series [2].

B5: HisBoxMut (dsDNA)
DNA 1: AGGGTGTGAGTTGTGAT
DNA 2: ATCACAACTCACACCCT
As for B5, the binding result in series [5] is given as “no binding”.
